B1: Kel2-DBD (natural protein, S. cerevisiae, UniProt P50090 1-882, looked up)
chain: MVPFKLTNKVPTDTGPSLISAQSVPRPIVFMDNRNNTRIVTPTLPPNQHRGISGASTALPWSPESKNTGKYIWNRVKLKNSPFPRYRHSSSFIVTNDNRIFVTGGLHDQSVYGDVWQIAANADGTSFTSKRIDIDQNTPPPRVGHASTICGNAYVVFGGDTHKLNKNGLLDDDLYLFNINSYKWTIPQPIGRRPLGRYGHKISIIASNPMQTKLYLFGGQVDETYFNDLVVFDLSSFRRPNSHWEFLEPVGDLPPPLTNHTMVAYDNKLWVFGGETPKTISNDTYRYDPAQSEWSKVKTTGEKPPPIQEHASVVYKHLMCVLGGKDTHNAYSNDVYFLNLLSLKWYKLPRMKEGIPQERSGHSLTLMKNEKLLIMGGDKTDYASPNIHDLQTSETDQGEGTLLYTLDLSSLNELCPGIMCESLHAGESFSNSLSGGFTPSKSTESENQEIINILTPRLPDSKVLSYNDIDEGAGSYSSALDDKAFERKSDREEKKPQSSKVDSSINKESPGTGIKVSKKNFPVLRGLTVDSEEYGSSSYKDTSCQKGIPKNLFDDLNLNLQTLRLEAQQKELETARHISQLEKEVQRLMVIKEASKDSNFQTARLKNLEIQKTFLESRINDLKNLLMVKLSQASKLCDQITIQNNGLKTCSEHVTIKRDIIDLENKCDVLKRQNEILVNNMQKITPELHTYLNESSCYLGKLLKSYPTSARPPSSEKDNQIYEKDSLNKIEKVINEMHETVRAKEKLHLETQKLNDERDSLRANLLDNNNKLDALRKLSDGSSKSMDLTKKAIHLSQSELEKYRKNNDDLQKEIDRIKTEQAEQDDKQEQRGAITHGNFDAFHRMKINNLKAELYMSKENRDSLKDELLALKKKLYTLEQKK
B2: Kel1-AD (natural protein, S. cerevisiae, UniProt P38853 1-1164, looked up)
chain: MAGFSFAKKFTHKKHGKTPSDASISDQSREASLSTPPNEKFFTKQETPQKGRQFSQGYHSNVNKTSSPPMFARKQVSESRIQPSAVPPQQRNVSGPSTTLHKQLSKQREYTVWNRIKLQNSPFPRYRHVASAYVTDKNQIYVIGGLHDQSVYGDTWILTAFDNATRFSTTTIDISEATPPPRVGHAAVLCGNAFVVFGGDTHKVNKEGLMDDDIYLLNINSYKWTVPAPVGPRPLGRYGHKISIIATTQMKTKLYVFGGQFDDTYFNDLAVYDLSSFRRPDSHWEFLKPRTFTPPPITNFTMISYDSKLWVFGGDTLQGLVNDVFMYDPAINDWFIIDTTGEKPPPVQEHATVVYNDLMCVVGGKDEHDAYLNSVYFLNLKSRKWFKLPVFTAGIPQGRSGHSLTLLKNDKILIMGGDKFDYARVEEYDLHTSDIDMQRGTIVYTLDLARIKDLCPGVMDVPTDTPTPRNGNLDLATPVTPTSHQTKNMNVPISAAPLASAPSPAPKDFSDADRLNREVHNRNVSTEHQNQSHPVNSESHLIAEPNILTPYVPSESSQTPVMKITSNKPFDTPTIQKEPDLSETMDPTVGNQRIPSSIYGDNLTPANQIKNNSPILETLPSNEIKTPQNGNIEEIKHLPDADEKIDSTTTFDQEINGDKLGTSSMSKVEEDGNVADEDDEIGVAQMASSPSKDQFKIKHYNESSELSQNNTEIDKLSEPVDITIKKSDTAGHDSANHVIDASDEKNVSPMGDVPTDTKNEEASVPINRDATTEVVDRALFEKLRSELQSLKELTHEKALEAGAHIKELETELWQLKSQKNSGTTKEIDELDSVRLQSKCEILEADNHSLEDKVNELEELVNSKFLDIENLNEVIQFQNEKIKSLELEPNYKEKLEELQIEHENLSRENERLKNESKQHNEDIINNVANYSSQLGSLISHWKENRANSSFLESSSSLISVSDENGEKTVGEPYGDQSRHHRVVINKLTNRLDDLLERSQELTISKEKLSSEYHALKMEHSSLSQDVLVKENEIKKIQNDYKESISSMDSASKALMVSQRELEKYKSLNKKLIDELDELKFKNGVCSENFENGLRSTEESSNNVKNSNSIRENQFNIKINDLKAELFITNQERDDLKSEVLELKKRLLNLENNTKQVNEDADSDLL

Tests used:
two-hybrid = target: the molecule itself; assay: two-hybrid
Kel2-DBD = target: B1; assay: two-hybrid

Binder	interaction relative to that of Kel1p-AD with Kel2-DBD (two-hybrid) [%]	fold increase of β-galactosidase activity against Kel1-AD or Kel2-DBD alone (Kel2-DBD) [fold]
B1	~10	–
B2	–	> 100

From publication PMC2132843 (The Journal of Cell Biology, 1998)
